PMC12713080

How the values were obtained:
[1] = biological target: copper (Cu pull-down beads); experiment: copper pull-down, IB quantified; conditions: HEK293T cell lysate; mean+/-SD, n = 3; parent: est. 1.9; read off a plot
[2] = biological target: copper (Cu-charged NTA beads); experiment: NTA-copper bead pull-down of purified protein, IB quantified; conditions: 0.5 h at 4 °C; washed with NETN buffer (20 mm Tris-HCl (PH 8.0), 300 mm NaCl, 0.5% NP-40, 1 mm EDTA) 5 times; mean+/-SD, n = 3; parent: est. 2.4; read off a plot

Substance: HA‐TAK1 (from UniProt O43318) H154A
- response [1]: 1

Substance: HA‐TAK1 (from UniProt O43318) H154A; M196A
- response [1]: 0.95

Substance: HA‐TAK1 (from UniProt O43318) M196A
- response [1]: 0.8

Substance: TAK1-N H154A; M196A
- response [2]: 0.4
